Laboratory results taken from article PMC7784741.

Assays:
[1] = target: YAP-binding domain of human TEAD4, TEAD4 217-434 (human) (UniProt Q15561); assay: SPR
[2] = target: YAP-binding domain of TEAD from Anabas testudineus (residues 211-428) (Anabas testudineus); assay: SPR

YAP-binding domain of human TEAD4, TEAD4 217-434 (human), sequence (Q15561 217-434): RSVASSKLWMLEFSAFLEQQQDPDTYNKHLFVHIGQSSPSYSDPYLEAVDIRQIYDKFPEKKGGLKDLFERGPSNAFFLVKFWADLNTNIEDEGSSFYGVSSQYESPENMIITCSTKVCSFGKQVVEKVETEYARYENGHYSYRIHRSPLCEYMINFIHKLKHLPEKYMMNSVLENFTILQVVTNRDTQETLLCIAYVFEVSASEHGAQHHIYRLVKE

Substance | Kd [1] [nM] | Kd [2] [nM]
synthetic peptide of the TEAD-binding domain of YAP, Anabas testudineus_1 (residues 21-59) | 71 | 99
synthetic peptide of the TEAD-binding domain of YAP, Anabas testudineus_2 (residues 21-60) |  | 60
